*1 amine or outer side, *2 acyl side, *3 side chain or, on linkers, in order; H or OH if unused. Where a SMILES comes first, the peptide text is derived from it. [ ]: non-standard residue; d: D form. TyrEtNAc = L-tyrosine O-ethyl acetamide, (S)-3-(4-(2-acetamidoethoxy)phenyl)-2-aminopropanoic acid, CC(=O)NCCOc1ccc(C[C@H](N[*:1])C(=O)[*:2])cc1; 3AzaPhe4AcPip = (S)-3-(6-(4-acetylpiperazin-1-yl)pyridin-3-yl)-2-aminopropanoic acid, CC(=O)N1CCN(c2ccc(C[C@H](N[*:1])C(=O)[*:2])cn2)CC1; 3Pal4Ph4CO2H = (S)-4-(5-(2-amino-2-carboxyethyl)pyridin-2-yl)benzoic acid, O=C([C@H](Cc1ccc(-c2ccc(C(=O)[*:3])cc2)nc1)N[*:1])[*:2]; hF3CF3 = (S)-2-amino-4-(3-(trifluoromethyl)phenyl)butanoic acid, O=C([C@H](CCc1cccc(C(F)(F)F)c1)N[*:1])[*:2]; hF2CF3 = (S)-2-amino-4-(2-(trifluoromethyl)phenyl)butanoic acid, O=C([C@H](CCc1ccccc1C(F)(F)F)N[*:1])[*:2]; Pro(trans-4-NH2) = O=C([C@@H]1C[C@@H](N[*:3])CN1[*:1])[*:2]; Bip(4'-COOH) = N[C@@H](Cc1ccc(-c2ccc(C(=O)O)cc2)cc1)C(=O)O; 1Nal(3S-Me) = C[C@@H](c1cccc2ccccc12)[C@H](N)C(=O)O; hPhe(4-CF3) = N[C@@H](CCc1ccc(C(F)(F)F)cc1)C(=O)O; Phe(4-COOH) = N[C@@H](Cc1ccc(C(=O)O)cc1)C(=O)O; Trp(6-F) = N[C@@H](Cc1c[nH]c2cc(F)ccc12)C(=O)O; Trp(7-aza) = N[C@@H](Cc1c[nH]c2ncccc12)C(=O)O; X14 = C[N+](C)(C)CC[C@@H](N[*:1])C(=O)[*:2]; h3Pal(5-CN) = N#Cc1cncc(CC[C@H](N)C(=O)O)c1; Pro(4R-NH2) = N[C@H]1CN[C@H](C(=O)O)C1; Ala(4-THP) = N[C@@H](CC1CCOCC1)C(=O)O; AEF = NCCOc1ccc(C[C@H](N)C(=O)O)cc1; hTyr = N[C@@H](CCc1ccc(O)cc1)C(=O)O; hCha = N[C@@H](CCC1CCCCC1)C(=O)O; 4Pal = N[C@@H](Cc1ccncc1)C(=O)O; dDab = NCC[C@@H](N)C(=O)O; dNMeA = CN[C@H](C)C(=O)O; Dab = NCC[C@H](N)C(=O)O; Dap = NC[C@H](N)C(=O)O
B1: SEQ ID NO: 103 (peptide)
peptide: cyclo([TyrEtNAc]W[Phe(4-COOH)]G[Pro(trans-4-NH2)][1Nal(3S-Me)]D[dNMeA]G[Bip(4'-COOH)][4Pal]S[dA][hF2CF3])
SMILES: CC(=O)NCCOc1ccc(C[C@@H]2NC(=O)[C@H](CCc3ccccc3C(F)(F)F)NC(=O)[C@@H](C)NC(=O)[C@H](CO)NC(=O)[C@H](Cc3ccncc3)NC(=O)[C@H](Cc3ccc(-c4ccc(C(=O)O)cc4)cc3)NC(=O)CNC(=O)[C@@H](C)N(C)C(=O)[C@H](CC(=O)O)NC(=O)[C@H]([C@@H](C)c3cccc4ccccc34)NC(=O)[C@@H]3C[C@@H](N)CN3C(=O)CNC(=O)[C@H](Cc3ccc(C(=O)O)cc3)NC(=O)[C@H](Cc3c[nH]c4ccccc34)NC2=O)cc1
B2: SEQ ID NO: 1 (peptide)
peptide: cyclo([3AzaPhe4AcPip]W[Phe(4-COOH)]G[Pro(trans-4-NH2)][1Nal(3S-Me)]D[dNMeA]G[Bip(4'-COOH)][4Pal][Dap][dA][h3Pal(5-CN)])
SMILES: CC(=O)N1CCN(c2ccc(C[C@@H]3NC(=O)[C@H](CCc4cncc(C#N)c4)NC(=O)[C@@H](C)NC(=O)[C@H](CN)NC(=O)[C@H](Cc4ccncc4)NC(=O)[C@H](Cc4ccc(-c5ccc(C(=O)O)cc5)cc4)NC(=O)CNC(=O)[C@@H](C)N(C)C(=O)[C@H](CC(=O)O)NC(=O)[C@H]([C@@H](C)c4cccc5ccccc45)NC(=O)[C@@H]4C[C@@H](N)CN4C(=O)CNC(=O)[C@H](Cc4ccc(C(=O)O)cc4)NC(=O)[C@H](Cc4c[nH]c5ccccc45)NC3=O)cn2)CC1
B3: SEQ ID NO: 105 (peptide)
peptide: cyclo([TyrEtNAc]W[Phe(4-COOH)]G[Pro(trans-4-NH2)][1Nal(3S-Me)]D[dNMeA]G[Bip(4'-COOH)][4Pal]S[dA][hPhe(4-CF3)])
SMILES: CC(=O)NCCOc1ccc(C[C@@H]2NC(=O)[C@H](CCc3ccc(C(F)(F)F)cc3)NC(=O)[C@@H](C)NC(=O)[C@H](CO)NC(=O)[C@H](Cc3ccncc3)NC(=O)[C@H](Cc3ccc(-c4ccc(C(=O)O)cc4)cc3)NC(=O)CNC(=O)[C@@H](C)N(C)C(=O)[C@H](CC(=O)O)NC(=O)[C@H]([C@@H](C)c3cccc4ccccc34)NC(=O)[C@@H]3C[C@@H](N)CN3C(=O)CNC(=O)[C@H](Cc3ccc(C(=O)O)cc3)NC(=O)[C@H](Cc3c[nH]c4ccccc34)NC2=O)cc1
B4: SEQ ID NO: 101 (peptide)
peptide: cyclo([TyrEtNAc]W[Phe(4-COOH)]G[Pro(trans-4-NH2)][1Nal(3S-Me)]D[dNMeA]G[Bip(4'-COOH)][4Pal][Dab][dA][hTyr])
SMILES: CC(=O)NCCOc1ccc(C[C@@H]2NC(=O)[C@H](CCc3ccc(O)cc3)NC(=O)[C@@H](C)NC(=O)[C@H](CCN)NC(=O)[C@H](Cc3ccncc3)NC(=O)[C@H](Cc3ccc(-c4ccc(C(=O)O)cc4)cc3)NC(=O)CNC(=O)[C@@H](C)N(C)C(=O)[C@H](CC(=O)O)NC(=O)[C@H]([C@@H](C)c3cccc4ccccc34)NC(=O)[C@@H]3C[C@@H](N)CN3C(=O)CNC(=O)[C@H](Cc3ccc(C(=O)O)cc3)NC(=O)[C@H](Cc3c[nH]c4ccccc34)NC2=O)cc1
B5: SEQ ID NO: 102 (peptide)
peptide: cyclo([TyrEtNAc]W[Phe(4-COOH)]G[Pro(trans-4-NH2)][1Nal(3S-Me)]D[dNMeA]G[Bip(4'-COOH)][4Pal]G[dDab][h3Pal(5-CN)])
SMILES: CC(=O)NCCOc1ccc(C[C@@H]2NC(=O)[C@H](CCc3cncc(C#N)c3)NC(=O)[C@@H](CCN)NC(=O)CNC(=O)[C@H](Cc3ccncc3)NC(=O)[C@H](Cc3ccc(-c4ccc(C(=O)O)cc4)cc3)NC(=O)CNC(=O)[C@@H](C)N(C)C(=O)[C@H](CC(=O)O)NC(=O)[C@H]([C@@H](C)c3cccc4ccccc34)NC(=O)[C@@H]3C[C@@H](N)CN3C(=O)CNC(=O)[C@H](Cc3ccc(C(=O)O)cc3)NC(=O)[C@H](Cc3c[nH]c4ccccc34)NC2=O)cc1
B6: SEQ ID NO: 10 (peptide)
peptide: cyclo([3Pal4Ph4CO2H]W[Phe(4-COOH)]G[Pro(trans-4-NH2)][1Nal(3S-Me)]D[dNMeA]G[3Pal4Ph4CO2H]W[Dap][dA][hTyr])
SMILES: C[C@@H]1C(=O)NCC(=O)N[C@@H](Cc2ccc(-c3ccc(C(=O)O)cc3)nc2)C(=O)N[C@@H](Cc2c[nH]c3ccccc23)C(=O)N[C@@H](CN)C(=O)N[C@H](C)C(=O)N[C@@H](CCc2ccc(O)cc2)C(=O)N[C@@H](Cc2ccc(-c3ccc(C(=O)O)cc3)nc2)C(=O)N[C@@H](Cc2c[nH]c3ccccc23)C(=O)N[C@@H](Cc2ccc(C(=O)O)cc2)C(=O)NCC(=O)N2C[C@H](N)C[C@H]2C(=O)N[C@@H]([C@@H](C)c2cccc3ccccc23)C(=O)N[C@@H](CC(=O)O)C(=O)N1C
B7: SEQ ID NO: 100 (peptide)
peptide: cyclo([TyrEtNAc]W[Phe(4-COOH)]G[Pro(trans-4-NH2)][1Nal(3S-Me)]D[dNMeA]G[Bip(4'-COOH)][4Pal][Dab][dA][hPhe(4-CF3)])
SMILES: CC(=O)NCCOc1ccc(C[C@@H]2NC(=O)[C@H](CCc3ccc(C(F)(F)F)cc3)NC(=O)[C@@H](C)NC(=O)[C@H](CCN)NC(=O)[C@H](Cc3ccncc3)NC(=O)[C@H](Cc3ccc(-c4ccc(C(=O)O)cc4)cc3)NC(=O)CNC(=O)[C@@H](C)N(C)C(=O)[C@H](CC(=O)O)NC(=O)[C@H]([C@@H](C)c3cccc4ccccc34)NC(=O)[C@@H]3C[C@@H](N)CN3C(=O)CNC(=O)[C@H](Cc3ccc(C(=O)O)cc3)NC(=O)[C@H](Cc3c[nH]c4ccccc34)NC2=O)cc1
B8: SEQ ID NO: 106 (peptide)
peptide: cyclo([TyrEtNAc]W[Phe(4-COOH)]G[Pro(trans-4-NH2)][1Nal(3S-Me)]D[dNMeA]G[Bip(4'-COOH)][Ala(4-THP)]G[dDab][h3Pal(5-CN)])
SMILES: CC(=O)NCCOc1ccc(C[C@@H]2NC(=O)[C@H](CCc3cncc(C#N)c3)NC(=O)[C@@H](CCN)NC(=O)CNC(=O)[C@H](CC3CCOCC3)NC(=O)[C@H](Cc3ccc(-c4ccc(C(=O)O)cc4)cc3)NC(=O)CNC(=O)[C@@H](C)N(C)C(=O)[C@H](CC(=O)O)NC(=O)[C@H]([C@@H](C)c3cccc4ccccc34)NC(=O)[C@@H]3C[C@@H](N)CN3C(=O)CNC(=O)[C@H](Cc3ccc(C(=O)O)cc3)NC(=O)[C@H](Cc3c[nH]c4ccccc34)NC2=O)cc1
B9: SEQ ID NO: 104 (peptide)
peptide: cyclo([TyrEtNAc]W[Phe(4-COOH)]G[Pro(trans-4-NH2)][1Nal(3S-Me)]D[dNMeA]G[Bip(4'-COOH)][4Pal]S[dA][hF3CF3])
SMILES: CC(=O)NCCOc1ccc(C[C@@H]2NC(=O)[C@H](CCc3cccc(C(F)(F)F)c3)NC(=O)[C@@H](C)NC(=O)[C@H](CO)NC(=O)[C@H](Cc3ccncc3)NC(=O)[C@H](Cc3ccc(-c4ccc(C(=O)O)cc4)cc3)NC(=O)CNC(=O)[C@@H](C)N(C)C(=O)[C@H](CC(=O)O)NC(=O)[C@H]([C@@H](C)c3cccc4ccccc34)NC(=O)[C@@H]3C[C@@H](N)CN3C(=O)CNC(=O)[C@H](Cc3ccc(C(=O)O)cc3)NC(=O)[C@H](Cc3c[nH]c4ccccc34)NC2=O)cc1

Target: Recombinant human IL-1β (BioLegend 579404) (human, UniProt P01584 117-269)
Experiment: cell-based or functional assay
Details: not given

| Molecule | MRC5 IC50 [nM] |
| --- | --- |
| B1 | 0.066 |
| B2 | 0.0365 |
| B3 | 0.091 |
| B4 | 0.247 |
| B5 | 0.0421 |
| B6 | 0.256 |
| B7 | 0.274 |
| B8 | 0.0263 |
| B9 | 0.041 |

Target: T1, Recombinant human IL-1β (Homo sapiens, UniProt P01584)
T1 construct: purchased BioLegend 579404
Experiment: IL-6 assay in MRC5 cells: inhibition of IL-1β induced IL-6 secretion (AlphaLISA)
Assay type: cell-based
Details: inhibition of IL-1β induced IL-6 secretion in MRC5 cells; read-out: MRC5 IC50
Summary of the method: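 IL-1β at 2×EC80 in seeding medium (EMEM, 0.025% BSA) preincubated 1 h at ambient temperature with compound, then 3000 MRC5 cells/well added and incubated overnight at 37 °C, 5% CO2. IL-6 in conditioned medium quantified by AlphaLISA; IC50 from 4-parameter logistic fit.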

T1 sequence (P01584 117-269): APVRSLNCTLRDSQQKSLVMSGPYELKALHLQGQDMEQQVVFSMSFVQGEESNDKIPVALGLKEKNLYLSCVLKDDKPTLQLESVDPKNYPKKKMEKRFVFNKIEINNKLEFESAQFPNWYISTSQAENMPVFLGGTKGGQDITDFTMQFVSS

| Molecule | IC50 [nM] |
| --- | --- |
| CC(=O)NCCOc1ccc(C[C@@H]2NC(=O)[C@H](CCC3CCCCC3)NC(=O)[C@@H](CC[N+](C)(C)C)NC(=O)[C@H](CO)NC(=O)[C@H](Cc3c[nH]c4ncccc34)NC(=O)[C@H](Cc3ccc(-c4ccc(C(=O)O)cc4)cc3)NC(=O)CNC(=O)[C@@H](C)N(C)C(=O)[C@H](CC(=O)O)NC(=O)[C@H]([C@@H](C)c3cccc4ccccc34)NC(=O)[C@@H]3C[C@@H](N)CN3C(=O)CNC(=O)[C@H](Cc3ccc(C(=O)O)cc3)NC(=O)[C@H](Cc3c[nH]c4cc(F)ccc34)NC2=O)cc1 [Example 213] (cyclo([AEF](Ac)[Trp(6-F)][Phe(4-COOH)]G[Pro(4R-NH2)][1Nal(3S-Me)]D[dNMeA]G[Bip(4'-COOH)][Trp(7-aza)]S[X14][hCha])) | 0.018 |
| CC(=O)NCCOc1ccc(C[C@@H]2NC(=O)[C@H](CCC3CCCCC3)NC(=O)[C@@H](CCN)NC(=O)CNC(=O)[C@H](Cc3c[nH]c4ncccc34)NC(=O)[C@H](Cc3ccc(-c4ccc(C(=O)O)cc4)cc3)NC(=O)CNC(=O)[C@@H](C)N(C)C(=O)[C@H](CC(=O)O)NC(=O)[C@H]([C@@H](C)c3cccc4ccccc34)NC(=O)[C@@H]3C[C@@H](N)CN3C(=O)CNC(=O)[C@H](Cc3ccc(C(=O)O)cc3)NC(=O)[C@H](Cc3c[nH]c4ccccc34)NC2=O)cc1 [Example 214] (cyclo([AEF](Ac)W[Phe(4-COOH)]G[Pro(4R-NH2)][1Nal(3S-Me)]D[dNMeA]G[Bip(4'-COOH)][Trp(7-aza)]G[dDab][hCha])) | 0.02 |
| CC(=O)NCCOc1ccc(C[C@@H]2NC(=O)[C@H](CCc3ccc(O)cc3)NC(=O)[C@@H](CCN)NC(=O)CNC(=O)[C@H](Cc3c[nH]c4ncccc34)NC(=O)[C@H](Cc3ccc(-c4ccc(C(=O)O)cc4)cc3)NC(=O)CNC(=O)[C@@H](C)N(C)C(=O)[C@H](CC(=O)O)NC(=O)[C@H]([C@@H](C)c3cccc4ccccc34)NC(=O)[C@@H]3C[C@@H](N)CN3C(=O)CNC(=O)[C@H](Cc3ccc(C(=O)O)cc3)NC(=O)[C@H](Cc3c[nH]c4ccccc34)NC2=O)cc1 [Example 215] (cyclo([AEF](Ac)W[Phe(4-COOH)]G[Pro(4R-NH2)][1Nal(3S-Me)]D[dNMeA]G[Bip(4'-COOH)][Trp(7-aza)]G[dDab][hTyr])) | 0.024 |

From patent US20230406885A1, “CYCLIC PEPTIDES FOR TRAPPING INTERLEUKIN-1 BETA” (MERCK SHARP & DOHME LLC, priority 2022, published 2023)
